From PMC8416091

B1: Tlr2: N414Q/N442Q (protein)
parent chain: MLRALWLFWILVAITVLFSKRCSAQESLSCDASGVCDGRSRSFTSIPSGLTAAMKSLDLSFNKITYIGHGDLRACANLQVLILKSSRINTIEGDAFYSLGSLEHLDLSDNHLSSLSSSWFGPLSSLKYLNLMGNPYQTLGVTSLFPNLTNLQTLRIGNVETFSEIRRIDFAGLTSLNELEIKALSLRNYQSQSLKSIRDIHHLTLHLSESAFLLEIFADILSSVRYLELRDTNLARFQFSPLPVDEVSSPMKKLAFRGSVLTDESFNELLKLLRYILELSEVEFDDCTLNGLGDFNPSESDVVSELGKVETVTIRRLHIPQFYLFYDLSTVYSLLEKVKRITVENSKVFLVPCSFSQHLKSLEFLDLSENLMVEEYLKNSACKGAWPSLQTLVLSQNHLRSMQKTGEILLTLKNLTSLDISRNTFHPMPDSCQWPEKMRFLNLSSTGIRVVKTCIPQTLEVLDVSNNNLDSFSLFLPRLQELYISRNKLKTLPDASLFPVLLVMKIRENAVSTFSKDQLGSFPKLETLEAGDNHFVCSCELLSFTMETPALAQILVDWPDSYLCDSPPRLHGHRLQDARPSVLECHQAALVSGVCCALLLLILLVGALCHHFHGLWYLRMMWAWLQAKRKPKKAPCRDVCYDAFVSYSEQDSHWVENLMVQQLENSDPPFKLCLHKRDFVPGKWIIDNIIDSIEKSHKTVFVLSENFVRSEWCKYELDFSHFRLFDENNDAAILVLLEPIERKAIPQRFCKLRKIMNTKTYLEWPLDEGQQEVFWVNLRTAIKS
B2: Tlr2: kifunensine (protein)
parent chain: B1 parent chain
B3: Tlr2: tunicamycin (protein)
parent chain: B1 parent chain
B4: Tlr2: swainsonine (protein)
parent chain: B1 parent chain

Assays:
[1] = confocal imaging of Flag tag, transfected NIH-3T3 cells; details: glycan lost; control: wild-type Tlr2-Flag
[2] = confocal immunofluorescence of Tlr2, RAW264.7 cells; details: control: untreated RAW264.7 cells

Protein	localisation_or_trafficking ([2]; glycan changed form)	also measured
B1		localisation_or_trafficking [1]: decreases
B2	changes	
B3		localisation_or_trafficking ([2]; glycan lost): decreases
B4	changes	
